Test results from US20130078247A1 (Boehringer Ingelheim, published 2013).
Substitutions are numbered along the chain they refer to. Blank lines part the entries; values can stand above or below the binder they belong to.

Columns and labels:
[1] = biological target: T1, recombinant human DLL4 extracellular domain, C-terminally His-tagged (R&D Systems) (human, UniProt Q9NR61 25-522, biotinylated in the competition assays (sites not given)); assay: periplasmic extract; hDLL4 ELISA
T1 construct: also called rhDLL4; hDLL4; not shown: C-terminal His tag
T1 sequence (Q9NR61 25-522): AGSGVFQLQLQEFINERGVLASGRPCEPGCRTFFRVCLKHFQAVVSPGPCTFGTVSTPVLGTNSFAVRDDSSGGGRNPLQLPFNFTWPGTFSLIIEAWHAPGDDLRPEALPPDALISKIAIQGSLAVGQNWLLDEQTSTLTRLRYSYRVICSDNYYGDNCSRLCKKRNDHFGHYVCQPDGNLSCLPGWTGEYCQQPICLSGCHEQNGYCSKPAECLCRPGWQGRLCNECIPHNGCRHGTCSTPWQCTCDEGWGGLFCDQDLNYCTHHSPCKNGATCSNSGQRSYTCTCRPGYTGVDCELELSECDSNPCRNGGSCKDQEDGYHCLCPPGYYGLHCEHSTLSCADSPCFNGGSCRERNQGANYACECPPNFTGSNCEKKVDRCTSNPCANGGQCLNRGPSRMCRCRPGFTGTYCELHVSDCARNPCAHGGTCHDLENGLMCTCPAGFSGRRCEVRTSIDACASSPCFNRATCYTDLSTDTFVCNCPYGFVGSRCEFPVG

[2] = biological target: T1, recombinant human DLL4 extracellular …; assay: periplasmic extract; hDLL4/hNotch1 AlphaScreen
Procedure: To this mixture, the acceptor beads and the streptavidin donor beads are added and further incubated for 1 hour at room temperature. Fluorescence is measured by reading plates on the Envision Multilabel Plate reader (Perkin Elmer, Waltham, Mass., USA) using an excitation wavelength of 680 nm and an emission wavelength of 520 nm.

[3] = biological target: T2, recombinant human DLL4 (human, UniProt Q9NR61 25-522); assay: cell-based or functional assay
T2 sequence (Q9NR61 25-522): as above

[4] = biological target: T3, human DLL1 (human, UniProt O00548 18-545, limits assumed); assay: binding ELISA, coated hDLL1
T3 construct: also called hDLL1; rhDLL1
T3 sequence (looked up): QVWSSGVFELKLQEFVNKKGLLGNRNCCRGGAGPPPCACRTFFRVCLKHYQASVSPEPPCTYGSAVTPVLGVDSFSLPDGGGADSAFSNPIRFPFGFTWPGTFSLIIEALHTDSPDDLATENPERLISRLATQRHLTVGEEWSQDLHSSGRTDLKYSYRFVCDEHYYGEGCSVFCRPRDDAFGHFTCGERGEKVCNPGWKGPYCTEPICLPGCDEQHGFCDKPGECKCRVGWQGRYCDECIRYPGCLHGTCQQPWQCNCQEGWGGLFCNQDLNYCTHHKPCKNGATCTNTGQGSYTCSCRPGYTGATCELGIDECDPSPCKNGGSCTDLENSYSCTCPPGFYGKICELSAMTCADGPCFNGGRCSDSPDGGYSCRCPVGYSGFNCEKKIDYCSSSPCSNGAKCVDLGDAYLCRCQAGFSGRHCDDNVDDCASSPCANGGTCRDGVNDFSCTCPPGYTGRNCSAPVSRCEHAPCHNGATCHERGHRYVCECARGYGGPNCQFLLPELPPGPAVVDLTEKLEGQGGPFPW
Procedure: (§1) Absence of binding to homologous ligands human DLL1 and human Jagged-1 is assessed via solid phase binding assay (ELISA). In brief, human DLL1 (Alexis, San Diego, Calif., USA) and human Jagged-1 (Alexis, San Diego, Calif., USA) are coated overnight at 4° C. at 1 μg/mL in a 96-well MaxiSorp plate (Nunc, Wiesbaden, Germany). Wells are blocked with a casein solution (1% in PBS). VHHs are applied as dilution series and binding is detected using a mouse anti-myc (Roche) and an anti-mouse-AP conjugate (Sigma, St. Louis, Mo., USA).

[5] = biological target: T4, human Jagged-1 (human, UniProt P78504 34-1067, limits assumed); assay: binding ELISA, coated hJagged-1
T4 construct: also called hJag-1; hJAG1
Procedure: as §1

[6] = biological target: T5, recombinant human Jagged-1 (Alexis) (human, UniProt P78504 34-1067, limits assumed); assay: rhDLL1/rhJAG1 binding ELISA
T5 construct: also called hJagged-1; hJAG1

[7] = biological target: T6, recombinant human DLL1 (Alexis) (human, UniProt O00548 18-545, limits assumed); assay: rhDLL1/rhJAG1 binding ELISA
T6 construct: also called hDLL1; rhDLL1
T6 sequence (looked up): T3 sequence (looked up)

[8] = biological target: T2, recombinant human DLL4; assay: ProteOn off-rate screen, periplasmic extract, hDLL4 on chip
Procedure: (§2) In a first cycle, amino acid substitutions are introduced randomly in both framework (FW) and complementary determining regions (CDR) using the error-prone PCR method. […] After a polish step, PCR products are inserted via unique restriction sites into a vector designed to facilitate phage display of the VHH library. […] No selections on murine DLL4 are included as (conservation of) cross-reactivity is assessed at the screening level. Individual mutants are produced as recombinant protein using an expression vector derived from pUC119, which contains the LacZ promoter, a resistance gene for ampicillin, a multiple cloning site and an ompA leader sequence (pAX50). E. coli TG1 cells are transformed with the expression vector library and plated on agar plates (LB+Amp+2% glucose). Single colonies are picked from the agar plates and grown in 1 mL 96-deep-well plates. VHH expression is induced by adding IPTG (1 mM). Periplasmic extracts (in a volume of ˜80 uL) are prepared according to standard methods and screened for binding to recombinant human and mouse DII4 in a ProteOn (BioRad, Hercules, Calif., USA) off-rate assay. […] Periplasmic extract of affinity matured clones is diluted 1/10 and injected across the “analyte channels” A1-A6. An average off-rate is calculated of the wild type clones present in the plate and served as a reference to calculate off-rate improvements.

[9] = biological target: T7, recombinant mouse DLL4 (mouse, UniProt Q9JI71 27-532); assay: ProteOn off-rate screen, periplasmic extract, mDLL4 on chip
T7 construct: extracellular domain; also called rmDLL4; mDLL4; not shown: C-terminal His tag
T7 sequence (Q9JI71 27-532): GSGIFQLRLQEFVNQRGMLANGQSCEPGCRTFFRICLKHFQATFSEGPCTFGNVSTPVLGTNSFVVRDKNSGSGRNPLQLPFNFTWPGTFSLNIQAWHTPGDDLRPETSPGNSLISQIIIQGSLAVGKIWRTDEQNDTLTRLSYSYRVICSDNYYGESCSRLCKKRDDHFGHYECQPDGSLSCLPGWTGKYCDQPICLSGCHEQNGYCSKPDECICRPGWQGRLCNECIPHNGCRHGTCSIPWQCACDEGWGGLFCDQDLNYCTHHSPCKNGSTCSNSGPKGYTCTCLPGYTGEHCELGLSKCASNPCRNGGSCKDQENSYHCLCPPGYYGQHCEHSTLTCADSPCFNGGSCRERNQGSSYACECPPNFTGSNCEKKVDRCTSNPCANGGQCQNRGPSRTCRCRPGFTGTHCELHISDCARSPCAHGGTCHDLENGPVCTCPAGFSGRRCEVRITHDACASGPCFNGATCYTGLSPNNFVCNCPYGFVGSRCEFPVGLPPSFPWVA
Procedure: as §2

% inhibition [1]: 98%
% inhibition [2]: 95%
B1: DLLBII19F04 (VHH)
VHH: EVQLVESGGGLVQAEGSLRLSCAASGSTFSTYAMAWYRQAPGKQRELVAGISFDGSTHYAESVKGRFTISRDDAKNTVSLQMNSLKPEDAAVYYCYSVHPSTGFGSWGQGTQVTVSS
notes: also called DLLBII19F4; not shown: C-terminal c-myc and His6 tags

% inhibition [1]: 86%
% inhibition [2]: 75%
B2: DLLBII33C05 (VHH)
VHH: EVQLVESGGGLVQAGGSLRLSCAASGFTLDNYVIGWFRQAPGKEREEVSCISSSGGSTDYLDSVKGRFTISRDNAKNTVYLQMNSLKPEDTAVYYCAADSLPCYYDKMVYDYWGQGTQVTVSS
notes: also called DLLBII33C5; not shown: C-terminal c-myc and His6 tags

IC50 (nM) in the DLL4 proliferation assay (HUVEC, experiment 1) [3]: 11 nM
IC50 (nM) in the DLL4 proliferation assay (HUVEC, experiment 2) [3]: 6.8 nM
B3: DLLBII56A09 (VHH, not shown: small tags and cut ends)
VHH: EVQLVESGGGLVQPGGSLRLSCAASGFTFDDYAIGWFRQAPGKEPEGISCISSSGGITYYADSVKGRFTTSRDNAKNTVYLQMNSLKPEDTAVYYCATPGIAACRGIHYTGQGTQVTVSS

IC50 (nM) in the DLL4 proliferation assay (HUVEC, experiment 1) [3]: 10000 nM
binding result [4]: no binding
binding result [5]: no binding
B4: DLLBII115A05 (VHH)
VHH: EVQLVESGGGLVQPGGSLRLSCAASGFTFGSYDMSWVRRSPGKGPEWVSSINSGGGSTYYADFVKGRFTISRDNAKNTLYLQMNSLKPEDTAVYYCAADRYIRARQGDYWGAYEYDYWGQGTQVTVSS
notes: also called 115A5; DLLBII115A5; not shown: C-terminal c-myc tag and His6 tag

binding result [4]: no binding
binding result [5]: no binding
B5: DLLBII133A09 (VHH)
VHH: B4 VHH with S50A, F63Y, R103W, D108E, E114A
notes: not shown: C-terminal c-myc tag and (His)6 tag

binding result [6]: no binding
binding result [7]: no binding
B6: DLLBII136C07 (VHH)
VHH: B4 VHH with F63Y, R103W, D108E
notes: not shown: C-terminal c-myc and His6 tags

binding result [4]: no binding
binding result [5]: no binding
B7: DLLBII136C07 (VHH)
VHH: B4 VHH with F63Y, R103W, D108E
notes: as for B5

binding result [4]: no binding
binding result [5]: no binding
B8: DLLBII015 (VHH)
VHH: B4 VHH with F29I, S50A, F63Y, R103W, D108E, E114A
notes: as for B5

binding result [6]: no binding
binding result [7]: no binding
B9: DLLBII015 (VHH)
VHH: B4 VHH with F29I, S50A, F63Y, R103W, D108E, E114A
notes: as for B6

binding result [4]: no binding
binding result [5]: no binding
B10: DLLBII133G05 (VHH)
VHH: B4 VHH with S50A, A61T, F63Y, R103W, D108E, E114A
notes: as for B5

binding result [6]: no binding
binding result [7]: no binding
B11: DLLBII129D08 (VHH)
VHH: EVQLVESGGGLVQAGGSLRLSCAASGRTFSSYAMAWYRQAPGKEREYVAAIRWSGGTAYYADSVQGRFTISRDNAKNTVYLQMNSLKPEDTAVYYCANRAPDTRLEPYLYDYWGQGTQVTVSS
notes: as for B6

IC50 (nM) in the DLL4 proliferation assay (HUVEC, experiment 1) [3]: 401 nM
IC50 (nM) in the DLL4 proliferation assay (HUVEC, experiment 2) [3]: 112 nM
binding result [4]: no binding
binding result [5]: no binding
fold (off-rate improvement over DLLBII101G08) [8]: 1 fold
fold (off-rate improvement over DLLBII101G08) [9]: 1 fold
B12: DLLBII101G08 (VHH)
VHH: B11 VHH with Y37F, Y47F, P101A, E106G, L109E
notes: also called 101G8; DLLBII101G8; not shown: C-terminal c-myc tag and His6 tag

binding result [4]: no binding
binding result [5]: no binding
fold (off-rate improvement over DLLBII101G08) [8]: 38 fold
fold (off-rate improvement over DLLBII101G08) [9]: 35 fold
B13: DLLBII129D08 (VHH)
VHH: B11 VHH
notes: as for B5

binding result [6]: no binding
binding result [7]: no binding
B14: DLLBII129B05 (VHH)
VHH: B11 VHH with E106A, L109E, Y112H
notes: as for B6

binding result [6]: no binding
binding result [7]: no binding
B15: DLLBII129E11 (VHH)
VHH: B11 VHH with E106R
notes: as for B6

binding result [4]: no binding
binding result [5]: no binding
fold (off-rate improvement over DLLBII101G08) [8]: 24 fold
fold (off-rate improvement over DLLBII101G08) [9]: 20 fold
B16: DLLBII129B05 (VHH)
VHH: B11 VHH with E106A, L109E, Y112H
notes: as for B5

binding result [4]: no binding
binding result [5]: no binding
fold (off-rate improvement over DLLBII101G08) [8]: 28 fold
fold (off-rate improvement over DLLBII101G08) [9]: 26 fold
B17: DLLBII129E11 (VHH)
VHH: B11 VHH with E106R
notes: as for B5

% inhibition [1]: 23%
% inhibition [2]: 54%
B18: DLLBII28B06 (VHH)
VHH: EVQLVESGGGLVQAGGSLRLSCAASGSTFSTYAMGWYRQDPGNQRELVAAISSDGSTHYADSVKGRFTISRDNAKNTVYLQMNSLKPEDTAVYYCYAPVKVAGLEYDYWGQGTQVTVSS
notes: also called DLLBII28B6; not shown: C-terminal c-myc and His6 tags

% inhibition [1]: 76%
% inhibition [2]: 77%
B19: DLLBII17B03 (VHH)
VHH: EVQLVESGGGLVQPGGSLRLSCAASGFTFENYALGWFRQAPGKEREWVSCISSSDGTTYYADSVKGRFTISRDNVKNTVYLQMNRLKPEDTAIYYCALSLGSSWCAYDYWGQGTQVTVSS
notes: also called DLLBII17B3; not shown: C-terminal c-myc and His6 tags

% inhibition [1]: 98%
% inhibition [2]: 98%
B20: DLLBII19F12 (VHH)
VHH: EVQLVESGGGLVQAGGSLRLSCTASGSTFTSYAMGWYRQAPGKQRELVAAISSDDSTYYADCVKGRFTISRDNAKNTVYLQMNSLKPEDTAVYYCNAPHSDYDEEAPSDFGSWGQGTQVTVSS
notes: as for B6
